The values that follow come from a protein production outcome set (Wang et al. 2014).

This series can be described thus: label from the status in PepcDB records.
Take “MNPAPFLLLGGALAWLTLYLLGGRKVKAGEFILGAIIFPLSITLQNIVQQLPLLWVGIRPDITSLGTSEIIAISIWMGLIAGIFQELFKYIFVRGKSAGYAFSVGLGFAISEVIFITALVTLSAKGGTPSQPFATNLLSLAERYLVVLFHVGTAIMLTQGTRKVLIEVIGLHALIDSMAAYYQLMSAVYIKTNKIYMIPRILLLTEIVLAVITVIVLIASLPKISQVKEEKEEVIW”: the protein production result is “failed”. With “MNPAYRKAMLESEIQKLLMEALQQLRDPRLKKDFVTFSRVELSKDKRYADVYVSFLGTPEERKETVEILNRAKGFFRTFIAKNLRLYVAPEIRFYEDKGIEASVKVHQLLVQLGYDPLKDKEKKEEDKEEE”, the protein production result is recorded as “not failed”. Consider “MNPEPRCPCVLLLDTSGSMQGAAIEALNQGLLSLKDELMKNSIAARRVEIAIVTFDSHINVIQDFVTADQFNPPILTAQGLTSMGAGIHKALDMVQERKSLYRANGVAYYRPWVFMITDGEPQGELDHLVEQAALRLQGDEVNKRVAFFSVGVENANMTRLNQIAVRTPLEHHHHHH”, for which the protein production entry is given as “failed”.

Turning to “MNPFTYSKPTDITAAVNLSGPATRFIAGGTNLLDLMKENVATPEHLIDITGLPLREVSETASGGLMIGALVSNADLAYHPLIEARYPLLSKAVLAGASPQLRNMASTGGNLLQRTRCYYFYDTGVPCNKREPGSGCPAREGLNRIHAILGASDECVATHPSDMCVALAALEAVVHVEGRAGRRTIEFADFHRLPGDAPQRDNQLADDELIIAVELPAQGFASHNAYLKIRDRASYAFALISVAAAIDLDGDVVRDVRLALGGVAHKPWRDKAVEALLIGKPVTREHFAAAADAMLEDAKPLEHNGFKVRLARRAIIRALSDAATGGSAL”, the protein production result is reported as “not failed”. As for “MNPILNLIISFIALLWAANHLVAGSSGLAIRFQLSPLMIGLTIVALGTSAPELFISIISSLKDKNDLAIGNAIGSNIANIGLILGIIILIKPTSFHFNKLKKVYPILIIVMLFAYSLILDGYLGTIDGCLFLIGCIAVLCYFIYLASHSPKRDLSVNEFRPAILSYRSTPSNLLSIAIGLLILPICSKYLVYNASEIAKWAGISEFTIGLTIIAIGSSLPELTTALVAAIKGEDSIAIGTIIGSNIYNLLLILALPGLLNPTKISSVVLWRDMPVMLSITLLLLFLNYYYQKKTSSWPGGILLLVYFCYMASLIINAHS”, the entry is “failed”.

For “MNPKVKGIIAILVSAIGFSFMSVFFRLAGDLPVFQKSLARNLVAMFIPLYFIYKYKQPLFGKLSSQPLLISRSTLGLIGVLLNIYAIDHMILSDADTLMKLNPFWTILLSLIFLNEKVRNYQIIAMVIAIFGMLFVVKPEFSSSMIPAIGGLFSGIFAASAYTCVRALSTREAPYTIVFYFSFFSIVVLIPFTIFTFEPMSMMQVIYLIGAGLAAAAGQIGITLAYSYAPAKDISIFTYASIIFTAFFGFILFGESPDFYAILGYVIIIASSYYMFEKARRQPLSIQKEEQKPKT”, the protein production result is recorded as “failed”. For “MNPRLALALKLLEAGLVESAAIPVAQALERDPDDPRAHHLAGLIARRGGDGALALAAFTRGLAVAADDAPLRIERAGLLLDLGRAEEALADLAVALALAPDHQAVLSTQGRALIDLGRPGEALAPLRRARALAPDDVAPAHNLGRALLALDRPDEALPLLEAAVARAPGAIDPRADLAEALRRLDRPGDAAQLLRAVLADAPGRADLADALAGALLAAGAVDESVAVLRASLDKAPTHGAGWVNLAAALIETGALDEATAAADRALALDPDDADAKVNRAFARCLADDYEQGFADYAHRWRTAAFQRPYPPVTAPPWAGEPLGEGTLLVRGEQGLGDQIMAARFLPWLSKRPDRPRRIVFECHPCLHRLLAEGLEAGIDLLAMGRPPPPVAAWIGALDLARMAGVTAGVMPVDVPYLKARPPVPPLAPPLPPGGRGRLGLVWAGKTRPRDRSCPLEPLAGLCVDQGWTVHALQLGPRRADLAGLPAGLGVIDEGDRLGDMAATASVMAGLDLVVAVDTAVAHLAGALGLPCALLLLATPDWRWGQKASRTVWYPSLRLFRQPHPGDWDGAFDAVRRAFAQGWPLS”, the protein production result is on record as “failed”. “MNQEKLLALMMDLHQDGARQGPGSETETLRALELTRIDPLAKLQVADIGCGTGASTLVLASKLQNAQITAIDIFPEFLDVLSTRAKVMGYSEKIETLTESMDKLSFADESLDLIWSEGAIYNLGFAQGIECWKPMLKTGGVLAVSEITWLNPLPPEEIRQHWNTEYPEIATASEKIAILEHGGYDLIGYFILPSTNWLDSYYTPVEERIHDFLKRHRGDLEAEELIKMERREMDLYSRFKNWFSYGFYVARKR”: the protein production result is on record as “failed”.

For “MNQHTLLPKKTERLQYFGSVSPIKGEKPVEKEKMKDLQNIRKDYFFDIQHVGVANVSHPVTITSAMMPAEQTTAANFTMTCNLPRNQKGINMSRLTELLQVYHQNGWILSFSSLQQFTKELAENMDTSSATVEVRFPWFFERKSPKLEKAGLMHADIFMSVTYRKDQPFKQRAGISAKVTTLCPCSKEISEYSAHNQRGTVKHLGRIFTRAASLPSDVKADLPHAAESNASARLHPVLKRPDEKAVTETAYENPRFVEDLARLIAADLFELEWVSAFEIECRNEESIHLHRCLCEVCFSKEVDKI”, the protein production entry is recorded as “failed”.

“MNQLEFEQVSLYQIIVDSEKLAQEIYYQIEDEEISFYEAAYLYDVDAVRRQRCGYEGKVYRFSLPVNVATVIFRTSPKQLISPLQTEQGYHLFMVEEFIPAELEHHHHHH”: the protein production result is “failed”. As for “MNQLTAYTLRLGDNCLVLSQRLGEWCGHAPELEIDLALANIGLDLLGQARNFLSYAAELAGEGDEDTLAFTRDERQFSNLLLVEQPNGNFADTIARQYFIDAWHVALFTRLMESRDPQLAAISAKAIKEARYHLRFSRGWLERLGNGTDVSGQKMQQAINKLWRFTAELFDADEIDIALSEEGIAVDPRTLRAAWEAEVFAGINEATLNVPQEQAYRTGGKKGLHTEHLGPMLAEMQYLQRVLPGQQW”, the entry is “not failed”; as for “MNQPSSLAADLRGAWHAQAQSHPLITLGLAASAAGVVLLLVAGIVNALTGENRVHVGYAVLGGTAGFAATALGALMALGLRAISARTQDAMLGFAAGMMLAASAFSLILPGLDAAGTIVGPGPAAAAVVALGLGLGVLLMLGLDYFTPHEHERTGHQGPEAARVNRVWLFVLTIILHNLPEGMAIGVSFATGDLRIGLPLTSAIAIQDVPEGLAVALALRAVGLPIGRAVLVAVASGLMEPLGALVGVGISSGFALAYPISMGLAAGAMIFVVSHEVIPETHRNGHETTATVGLMAGFALMMFLDTALG”, “failed”. As for “MNQSIIFTEQLTWDVQLSAIHFTAQQQGMVIDCYIGQKVLEHLAAEKINNSEQALSLFEQFRFDIEEQAEKLIEQEAFDVQGHIQVERVD”, the entry is “not failed”. Turning to “MNQVEMTEFPVGKPEEALYGVASTPDGALWFTLAKGNAIGRLSPDGEVSRFPLPHADGQPTTITCGPDGRPWFTLSSANAVGRLSPDGALRMFELPRPASRPFGIAAGHDGCLWFAEMAGDRIGRITIDGDIEEYDLPVKGGYPSCMAAGRDGLMWFTLNQAGAIGSISATAAPRIFPLGAADAAPVGIASDAQGALWIAQAGNGAIARFDAGGRITEFPLHSRAARPHALAADAAGNLWFTEWGANRIGRISEAGDTAGYELAAPGSEPHGIAIDPHGCVWAALETGSLVRLQASPRD”, the protein production result is reported as “failed”. For the sequence “MNQYVKIEVQQGDTLWSIADQVADTKKINKNDFIEWVADKNQLQTSDIQPGDELVIPLKKKHQDAYELATLEHHHHHH”, the protein production result is “failed”. Next, “MNRDLSSFKRTMNTLAVSSDVAFFNITLRFWIRRNDETREQGKFKPHTDLPRLQSFYLDYYQKNVMDVIKIIGNQYTILKEIESSAHSAAIRAIHAALPPHKINGDSRKQADSYIQHACDTAGVLFRVLELLSEDVQLPSEFLEADADVKQLAEIFRPYNIIPLYICGKYSMKRLPEY”: “failed”; “MNREEVLKQLQSIFRDILKKDNVCIDESSTSKDVDGWDSLTHMQIIAQIEKHFGVRFNFREVIKFKNVGDLCSALLTKMELEHHHHHH”: “not failed”.
